Consider four molecules from US20080118978A1 (published 2008).

The target of test [1] is T1, CD10 (human, UniProt P08473 2-750).
T1 construct: Endogenous CD10 of human cell lines: on Raji, RTX/Raji and Ramos cells in flow cytometry; In the ELISA it was a Triton X-100-dissolved membrane fraction of SBC-3 cells coated on the plate; also called CALLA; neutral endopeptidase
Kind of test: ELISA on plate-coated membrane fraction of CD10-expressing SBC-3 cells. How it is done: As to an antigen, a membrane fraction prepared from human lung small-cell tumor cell line SBC-3 cells (JCRB 0818) which highly express CD10 was used. The membrane fraction was suspended in 20 mM HEPES (pH 7.4) buffer containing 1 mM EDTA and 250 mM sucrose and cells were crushed using a homogenizer, then centrifugal separation was carried out at a low speed of 8,000×g so that granules in the cells and uncrushed cells were precipitated and removed and a centrifugal separation was carried out at a high speed of 80,000×g to separate the desired cell membrane. The separated membrane fraction was dissolved in PBS containing 0.1% of Triton-X 100 whereby protein was quantified, then made 10 μg/mL, dispensed at 50 μL/well into a 96-well plate for ELISA (manufactured by Gliner) and allowed to stand at 4° C. for one night for adsorption. After washing with PBS, 1% BSA-PBS was added in an amount of 100 μL/well and the reaction was carried out at room temperature for 1 hour to block the remaining active groups were blocked. […] After the reaction, each well was washed with Tween-PBS, a peroxidase-labeled goat anti-human IgG (H&L) antibody solution diluted 2,000-fold with 1% BSA-PBS was added as a secondary antibody solution in an amount of 50 μL/well and reaction was carried out at room temperature for 1 hour. After the reaction, washing was carried out with Tween-PBS, an ABTS substrate solution was added in an amount of 50 μL/well to develop color and OD415 was measured.

Test [2] addresses T1, CD10. Kind of test: flow cytometry on Raji and RTX/Raji cells, FITC anti-mouse IgG secondary. How it is done:
The supernatant liquid was removed, cell pellets were loosened and 10 μL of FcR blocking reagent (manufactured by Miltenyi Biotec) was added thereto. After the mixture was allowed to stand on ice for about 30 minutes, an FACS buffer was added thereto and washed by centrifugal separation (about 5000×g for 1 minutes at 4° C.) was repeated three times. An FACS buffer was added so as to give a cell density of 2×10⁷ cells/ml for suspension and each 50 μL thereof was aliquated into a tube. The FACS buffer (50 μL) was added to each tube to suspend and the primary antibody solution was added thereto in an amount of 2.5 μL per tube. With regard to the primary antibody solution, each of mouse anti-CD10 antibody NL-1 [Proc. Natl. Acad. Sci. USA, 79, 4386 (1982)], anti-CD20 antibody B1 (manufactured by Beckman Coulter), FITC-labeled anti-CD19 antibody J4.119 (manufactured by Beckman Coulter) and FITC-labeled anti-CD22 antibody SJ.10.1H11 (manufactured by Beckman Coulter) was used. […] It was filtered by a Nylon mesh and transferred to a test tube to prepare a sample to be measured. Expression of CD antigen on the cell surface was measured using a flow cytometer Epics Elite (manufactured by Beckman Coulter).
(In general: Flow cytometry measures light scatter and fluorescence of single cells or particles in a stream.)

T1 sequence (P08473 2-750 limits assumed): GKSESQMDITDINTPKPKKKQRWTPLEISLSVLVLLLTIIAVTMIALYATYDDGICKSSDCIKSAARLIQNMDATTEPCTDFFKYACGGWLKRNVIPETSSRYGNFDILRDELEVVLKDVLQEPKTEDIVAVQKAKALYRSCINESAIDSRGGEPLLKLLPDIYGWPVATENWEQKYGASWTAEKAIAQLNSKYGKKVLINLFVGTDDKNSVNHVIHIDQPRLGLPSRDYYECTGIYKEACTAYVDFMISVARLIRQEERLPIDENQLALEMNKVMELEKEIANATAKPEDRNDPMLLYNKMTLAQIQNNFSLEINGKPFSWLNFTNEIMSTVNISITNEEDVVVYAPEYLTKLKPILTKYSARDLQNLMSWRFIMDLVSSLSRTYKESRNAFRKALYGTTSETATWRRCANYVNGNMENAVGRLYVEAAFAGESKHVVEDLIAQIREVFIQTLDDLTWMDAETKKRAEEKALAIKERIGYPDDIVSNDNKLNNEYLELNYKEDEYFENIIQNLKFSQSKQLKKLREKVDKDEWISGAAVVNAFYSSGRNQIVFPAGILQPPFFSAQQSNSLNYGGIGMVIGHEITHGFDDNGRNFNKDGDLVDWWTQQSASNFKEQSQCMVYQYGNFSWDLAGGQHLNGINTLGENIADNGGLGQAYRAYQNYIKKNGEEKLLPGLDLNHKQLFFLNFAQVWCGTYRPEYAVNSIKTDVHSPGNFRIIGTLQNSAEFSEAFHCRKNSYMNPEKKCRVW

B1: anti-CD10 humanized antibody HV0LV9 MS705 (antibody, V domains shown)
VH: EVQLVESGGGVVQPGRSLRLSCAASGFTFSSFGMHWVRQAPGKGLEWVAYISGGSYTIYYADTVKGRFTISRDNSKNTLYLQMNSLRAEDTAVYYCARSYGNFWYFDVWGQGTTVTVSS
VL: DIVMTQSPDSLAVSLGERATIACSVSSSISSSNLHWYQQKPGQSPKPWIYGTSNLASGVPVRFSGSGSGTSYFLTISSLQAEDVATYYCQQWSSYPLTFGQGTKVEIKR
notes: also called HV0LV9 MS705 antibody; FERM BP-10099
Regarding B1, the binding result in test [1] is listed as “binds”.

B2: anti-CD10 humanized antibody HV2LV9 MS705 (antibody, V domains shown)
VH: EVQLVESGGGVVQPGRSLRLSCAASGFTFSSFGMHWVRQAPEKGLEWVAYISGGSYTIYYADTVKGRFTISRDNSKNTLYLQMNSLRAEDTAVYYCASSYGNFWYFDVWGQGTTVTVSS
VL: DIVMTQSPDSLAVSLGERATIACSVSSSISSSNLHWYQQKPGQSPKPWIYGTSNLASGVPVRFSGSGSGTSYFLTISSLQAEDVATYYCQQWSSYPLTFGQGTKVEIKR
notes: also called HV2LV9 MS705 antibody
On to B2, for which, in test [1], the binding result is “binds”.

B3: anti-CD10 humanized antibody HV0LV0 MS705 (antibody, V domains shown)
VH: EVQLVESGGGVVQPGRSLRLSCAASGFTFSSFGMHWVRQAPGKGLEWVAYISGGSYTIYYADTVKGRFTISRDNSKNTLYLQMNSLRAEDTAVYYCARSYGNFWYFDVWGQGTTVTVSS
VL: DIVMTQSPDSLAVSLGERATINCSVSSSISSSNLHWYQQKPGQPPKLLIYGTSNLASGVPDRFSGSGSGTDFTLTISSLQAEDVAVYYCQQWSSYPLTFGQGTKVEIKR
notes: also called HV0LV0 MS705 antibody
B3: the binding result in test [1] is “binds”.

B4: mouse anti-CD10 antibody NL-1 (antibody, V domains shown)
VH: DVQLVESGGGLVQPGGSRKLSCAASGFTFSSFGMHWVRQAPEKGLEWVAYISGGSYTIYYADTVKGRFTISRDNPKNTLFLQMTSLRSEDTAMYYCASSYGNFWYFDVWGAGTTVTVSS
VL: EIVLTQSPALMAASPGEKVTIACSVSSSISSSNLHWYQQKSETSPKPWIYGTSNLASGVPVRFSGSGSGTSYFLTISSMEAEDAATYYCQQWSSYPLTFGGGTKLEIK
notes: Mouse hybridoma antibody; H chain cloned with a mouse Cgamma2a probe and L chain with a Ckappa probe; also called anti-CD10 mouse antibody NL-1
For B4, the binding result in test [2] is given as “binds”.
